Tests used:
PDI–CACA (human) = PDI–CACA (human) (UniProt P07237); assay: pull-down; kinetic trapping: DTT-reduced FLAG-/SBP-tagged PDI or ERp57 variant (500 ug) added to 5 ml recalcified platelet-rich plasma with GPRP, collagen and thrombin, 3 min at 23°, stopped with hirudin and 20 mM NEM; streptavidin-agarose, washes with 500 mM NaCl and 1.5% Triton X-100, eluted with biotin; non-reducing and reducing 1D or 2D SDS-PAGE, Western blot for FLAG and vitronectin; the complex is a mixed disulfide
[1] = target: plasma vitronectin (human (endogenous in plasma; the donor is not stated, anti-human vitronectin antibodies were used))
[2] = target: αIIbβ3 integrin (immobilized) (UniProt P08514); assay: ELISA; solid-phase binding: αVβ3 or αIIbβ3 coated on microtiter wells (250 ng per well), blocked with BSA; recalcified plasma treated with PDI-CCCC, PDI-AAAA, ERp57-CCCC or BSA and 0.3 mM DTT for 10 min at 37 °C, stopped with 20 mM NEM, diluted 1:100, 1 h; bound vitronectin detected with rabbit anti-vitronectin and anti-rabbit IgG-HRP
[3] = target: αVβ3 integrin (immobilized) (UniProt P06756); assay: as above
Chain of UniProt P06756 (P06756 31-1048, chain 1 of 2): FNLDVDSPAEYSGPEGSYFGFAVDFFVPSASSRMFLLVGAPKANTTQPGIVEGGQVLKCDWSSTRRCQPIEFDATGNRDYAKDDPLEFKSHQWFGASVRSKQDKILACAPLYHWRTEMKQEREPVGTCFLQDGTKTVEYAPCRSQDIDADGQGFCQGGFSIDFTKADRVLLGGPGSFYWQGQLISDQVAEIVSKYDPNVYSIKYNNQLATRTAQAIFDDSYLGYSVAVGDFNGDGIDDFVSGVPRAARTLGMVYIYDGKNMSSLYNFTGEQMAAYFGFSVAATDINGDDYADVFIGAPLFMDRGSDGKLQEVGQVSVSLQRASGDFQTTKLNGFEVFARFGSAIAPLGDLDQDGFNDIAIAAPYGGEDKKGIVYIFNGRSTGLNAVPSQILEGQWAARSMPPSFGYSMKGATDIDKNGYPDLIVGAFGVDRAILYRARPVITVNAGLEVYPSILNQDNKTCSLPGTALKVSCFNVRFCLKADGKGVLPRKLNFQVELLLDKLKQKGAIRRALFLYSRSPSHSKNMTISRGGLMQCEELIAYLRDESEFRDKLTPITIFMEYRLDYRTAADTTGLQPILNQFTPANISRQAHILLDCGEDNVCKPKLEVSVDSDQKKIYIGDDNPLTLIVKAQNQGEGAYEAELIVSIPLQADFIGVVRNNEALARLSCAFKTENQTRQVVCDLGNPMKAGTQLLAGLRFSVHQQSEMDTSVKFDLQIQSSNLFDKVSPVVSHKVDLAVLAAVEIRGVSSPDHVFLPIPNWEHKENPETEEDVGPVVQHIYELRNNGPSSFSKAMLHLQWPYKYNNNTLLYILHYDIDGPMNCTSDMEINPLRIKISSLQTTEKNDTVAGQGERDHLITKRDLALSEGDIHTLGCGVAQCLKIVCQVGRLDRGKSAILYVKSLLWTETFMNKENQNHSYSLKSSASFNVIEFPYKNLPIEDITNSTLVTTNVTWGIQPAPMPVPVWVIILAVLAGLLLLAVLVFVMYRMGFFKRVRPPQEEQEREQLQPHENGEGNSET
Chain of UniProt P06756 (P05106 27-718, chain 2 of 2, further chain): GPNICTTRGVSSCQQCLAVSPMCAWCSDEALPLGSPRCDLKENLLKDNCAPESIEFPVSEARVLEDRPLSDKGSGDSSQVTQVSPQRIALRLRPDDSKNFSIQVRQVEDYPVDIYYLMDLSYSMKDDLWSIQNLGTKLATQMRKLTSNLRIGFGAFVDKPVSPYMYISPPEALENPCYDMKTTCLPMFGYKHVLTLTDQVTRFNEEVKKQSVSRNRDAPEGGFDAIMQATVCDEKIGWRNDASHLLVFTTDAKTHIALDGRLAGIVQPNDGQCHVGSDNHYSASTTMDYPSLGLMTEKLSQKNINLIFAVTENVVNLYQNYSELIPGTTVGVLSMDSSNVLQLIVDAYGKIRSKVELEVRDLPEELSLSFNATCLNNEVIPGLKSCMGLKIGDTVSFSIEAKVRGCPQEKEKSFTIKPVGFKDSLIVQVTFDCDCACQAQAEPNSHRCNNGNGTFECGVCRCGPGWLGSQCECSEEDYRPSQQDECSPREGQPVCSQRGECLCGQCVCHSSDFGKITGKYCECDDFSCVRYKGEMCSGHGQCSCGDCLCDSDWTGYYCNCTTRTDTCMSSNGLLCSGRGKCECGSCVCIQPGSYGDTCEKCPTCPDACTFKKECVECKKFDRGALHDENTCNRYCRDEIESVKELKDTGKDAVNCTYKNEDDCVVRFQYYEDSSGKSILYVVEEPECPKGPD

plasma vitronectin (natural protein)
stoichiometry N (PDI–CACA (human)): 1

PDI–CCCC (wild type protein disulfide isomerase) (from UniProt P07237 18-508) (enzyme)
PEG5000-maleimide incorporated into plasma vitronectin after reduction by the enzyme in NEM-pretreated platelet-poor plasma (0 to 5 min at 1 uM; 0.25 to 2.5 uM for 5 min), gel shift on Western blot (moles per mole of vitronectin) [1]: 3.6

PDI-reduced plasma vitronectin (natural protein)
fold increase in bound vitronectin at the highest PDI concentration [2]: > 3 fold | fold increase in bound vitronectin at the highest PDI concentration (15 μM) [3]: 4 fold
